The text below walks through data of patent US20170253633A1 (IMMATICS BIOTECHNOLOGIES, published 2017).

This assay has as its target T1, HLA-A*02:01 (human).
T1 construct: MHC monomer first loaded with a UV-sensitive peptide, which is cleaved by UV and exchanged with the test peptide; captured on streptavidin plates; also called peptide-receptive MHC molecules
Kind of assay: UV-ligand exchange + anti-b2m ELISA; +++ = peptide exchange yield >50. From the text: Candidate peptides for T cell based therapies according to the present invention were further tested for their MHC binding capacity (affinity). The individual peptide-MHC complexes were produced by UV-ligand exchange, where a UV-sensitive peptide is cleaved upon UV-irradiation, and exchanged with the peptide of interest as analyzed. Only peptide candidates that can effectively bind and stabilize the peptide-receptive MHC molecules prevent dissociation of the MHC complexes. To determine the yield of the exchange reaction, an ELISA was performed based on the detection of the light chain (β2m) of stabilized MHC complexes. The assay was performed as generally described in Rodenko et al. (Rodenko et al., 2006).
96 well MAXISorp plates (NUNC) were coated over night with 2 ug/ml streptavidin in PBS at room temperature, washed 4× and blocked forth at 37° C. in 2% BSA containing blocking buffer. Refolded HLA-A*02:01/MLA-001 monomers served as standards, covering the range of 15-500 ng/ml. Peptide-MHC monomers of the UV-exchange reaction were diluted 100 fold in blocking buffer. Samples were incubated for 1 h at 37° C., washed four times, incubated with 2 ug/ml HRP conjugated anti-β2m for 1 h at 37° C., washed again and detected with TMB solution that is stopped with […]. Absorption was measured at 450 nm. Candidate peptides that show a high exchange yield (preferably higher than 50%, most preferred higher than 75%) are generally preferred for a generation and production of antibodies or fragments thereof, and/or T cell receptors or fragments thereof, as they show sufficient avidity to the MHC molecules and prevent dissociation of the MHC complexes.
For orientation: In an ELISA, binding on a coated surface is turned into a signal by an enzyme label.
As for ALLDEQQVNV (gene: ID1), the peptide exchange yield is 50 to 75%. With STTNGGILTV (gene: FYTTD1), the peptide exchange yield lay in the range of 50 to 75%. As for GLLKAYSIRTA (gene: KRT7), the figure is 50 to 75%; as for ILVQVIPVV (gene: IRF6), 50 to 75%. SLDEKQNLV (gene: METTL8): the peptide exchange yield was in the range of 50 to 75%.

Turning to TLFPSKIGV (genes: MOB1A, MOB1B), the peptide exchange yield was in the range of 50 to 75%. With YLTNEGIQYL (genes: RPS10-NUDT3, RPS10) the figure was 50 to 75%; with SLATTLTKI (gene: COPB1), 50 to 75%; with LLDVTPKAV (gene: TJP2), 50 to 75%. As for YMLDIFHEVL (gene: HAS3), the peptide exchange yield lay within 50 to 75%. With LLYPTEITV (gene: ITGA3) the figure was 50 to 75%; with ALNDEINFL (gene: KRT7), 50 to 75%; with QLQGYLRSV (gene: RPL6), 50 to 75%.

Regarding GQLDFSEFL (gene: S100A11), the peptide exchange yield was 50 to 75%. For the molecule VLMDDTDPL (gene: PSMC1), the peptide exchange yield was in the range of 50 to 75%. As for FLEEKEQAAL (genes: TRIM16, CDRT1, TRIM16L), the figure is 50 to 75%; as for RLIDDMVAQA (gene: IDH1), 50 to 75%. For the molecule TLIEDDALNGA (gene: HPGD), the peptide exchange yield is 50 to 75%. In the case of ALSSPPPTV (gene: ZFYVE9), the peptide exchange yield is 50 to 75%. Take GLAQDPKSLQL (gene: TTC28): the peptide exchange yield lay in the range of 50 to 75%. As for SLDSSGFSL (gene: PARP4), the figure is 50 to 75%; as for TLTSIIVAV (gene: MROH2A), 50 to 75%; as for ALYPGQLVQL (gene: ARHGAP9), 50 to 75%.

On to YLDPSLNSL (gene: CXorf57), for which the peptide exchange yield is 50 to 75%. For GLDSSVNVQGSVL (gene: WTAP), the peptide exchange yield fell in the range of 50 to 75%. Take YLEPKLTQV (gene: PSME4): the peptide exchange yield was 50 to 75%.

Take QLAWFDTDL (gene: CTNNB1): the peptide exchange yield was in the range of 50 to 75%. In the case of VLFNIDGQGNHV (gene: GATA3), the peptide exchange yield was in the range of 50 to 75%. In the case of GLSEPIFQL (gene: MFN1), the peptide exchange yield lay in the range of 50 to 75%. With ILSAILVHL (gene: MROH2A), the peptide exchange yield fell in the range of 50 to 75%.

Turning to SLIGGTNFV (gene: AP1B1), the peptide exchange yield was in the range of 50 to 75%. For the molecule FLIDASQRV (gene: COL6A5), the peptide exchange yield was 50 to 75%.

In the case of ILLRDLPTL (gene: FAM174B), the peptide exchange yield is 50 to 75%. Take AMASHLTST (gene: RBM4): the peptide exchange yield is 50 to 75%. As for YLDPNQRDL (gene: ZNF573), the figure is 50 to 75%; as for FLGENISNFL (gene: APOL1), 50 to 75%.

For the molecule QIDGTLSTI (genes: FBXO34, CHMP4C, CHMP4B, CHMP4BP1), the peptide exchange yield is 50 to 75%. ILDISRSEV (gene: GPR107): the peptide exchange yield lay within 50 to 75%. Consider IVAPGTFEV (gene: ILF2), for which the peptide exchange yield is 50 to 75%.

As for GLAGPVRGV (genes: SNURF, SNRPB, SNRPN), the peptide exchange yield was 50 to 75%. As to IITKDLFQV (gene: DYNC1H1), the peptide exchange yield is 50 to 75%. In the case of SLATLEGIQL (gene: ZNF236), the peptide exchange yield lay in the range of 50 to 75%.

Take QMLELITRL (gene: DICER1): the peptide exchange yield fell in the range of 50 to 75%. For the molecule SLLDFERSL (gene: HPS3), the peptide exchange yield is 50 to 75%. As for RLSQLEGVNV (gene as printed: VP535), the peptide exchange yield lay within 50 to 75%. As for YLAPENGYLMEA (gene: SNRNP70), the peptide exchange yield fell in the range of 50 to 75%. Turning to ALWDEFNQL (gene: TBX1), the peptide exchange yield lay within 50 to 75%. Turning to KLPEPPPLA (gene: ERV3-1), the peptide exchange yield was 50 to 75%.

Take VIADRVVTV (gene: VWA5B1): the peptide exchange yield was in the range of 50 to 75%.

As for ILLDTPLFL (gene: SERHL2), the peptide exchange yield lay within 50 to 75%.

As to TLVTGLASV (gene: MFN1), the peptide exchange yield fell in the range of 50 to 75%. With ILGPQGNTI (gene: KHDRBS1) the figure was 50 to 75%; with YQAPDIDVQL (gene: GLTSCR2), 50 to 75%. With IIIPEIQKV (gene: CSE1L) the figure was 50 to 75%; with YLAGEAPTL (gene: VARS), 50 to 75%; with FLLPLIIVL (gene: MR1), 50 to 75%. In the case of VLANRVAVV (gene: DHRS2), the peptide exchange yield is 50 to 75%.

On to RLLDFPTLLV (gene: MAP10), for which the peptide exchange yield lay within 50 to 75%.

Consider VLFGEITRL (gene: NDUFS2), for which the peptide exchange yield lay in the range of 50 to 75%.

For VLMDDTDPLV (gene: PSMC1), the peptide exchange yield is 50 to 75%. For the molecule KLNATNIEL (gene: PSMA5), the peptide exchange yield fell in the range of 50 to 75%.
